Reference: paper PMC4694715

What was measured:
[1] = molecular target: CD20 (human (endogenous in Ramos)) (UniProt P11836)
[2] = molecular target: CD20 (human (endogenous in Ramos)) (UniProt P11836); experiment: flow cytometry on cells; 1E6 Ramos cells incubated with 0.5μg (16.7nM) or 1μg (33.3nM) of the RTX variant (non-saturating amounts); bound antibody detected with FITC murine monoclonal anti human kappa light chain antibody; read-out: MFI of the variant divided by MFI of the IgG1 control
[3] = molecular target: CD20 (human (endogenous in Ramos)) (UniProt P11836); remark: listed apart in the source

Sequence of UniProt P11836 (P11836 whole entry): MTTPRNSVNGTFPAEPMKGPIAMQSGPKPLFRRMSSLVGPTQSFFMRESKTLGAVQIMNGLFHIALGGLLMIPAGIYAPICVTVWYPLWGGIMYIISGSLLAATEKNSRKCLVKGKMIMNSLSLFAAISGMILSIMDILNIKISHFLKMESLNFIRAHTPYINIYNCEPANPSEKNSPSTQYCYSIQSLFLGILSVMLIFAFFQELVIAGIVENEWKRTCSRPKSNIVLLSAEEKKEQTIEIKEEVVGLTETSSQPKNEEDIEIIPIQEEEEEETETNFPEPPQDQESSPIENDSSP

Row | Substance | apoptosis of Ramos cells after 24h, normalised to the IgG1 control without crosslinker (100%) (% of IgG1 control) [1] | IgG1 signal ratio (MFI of RTX variant divided by MFI of IgG1 control) at 0.5μg [2] | IgG1 signal ratio (MFI of RTX variant divided by MFI of IgG1 control) at 1μg [2] | apoptosis of Ramos cells after 24h (AnnexinV-FITC positive cells, absolute), 2000ng antibody, no crosslinker [3]
1 | Rituximab IgG2 (antibody) | 546 | 0.37 | 0.42 | 49 % of cells
2 | Rituximab IgG1 a1 (antibody) | – | – | – | 11 % of cells
3 | Rituximab IgG4P (antibody) | 441 | – | – | 41 % of cells
